Test results reported in patent US20080125498A1 (published 2008).

Target: T1, protease-activated receptor 1 (PAR1), rat, endogenous in hippocampal neurons (rat, UniProt P26824 46-432)
T1 sequence (looked up): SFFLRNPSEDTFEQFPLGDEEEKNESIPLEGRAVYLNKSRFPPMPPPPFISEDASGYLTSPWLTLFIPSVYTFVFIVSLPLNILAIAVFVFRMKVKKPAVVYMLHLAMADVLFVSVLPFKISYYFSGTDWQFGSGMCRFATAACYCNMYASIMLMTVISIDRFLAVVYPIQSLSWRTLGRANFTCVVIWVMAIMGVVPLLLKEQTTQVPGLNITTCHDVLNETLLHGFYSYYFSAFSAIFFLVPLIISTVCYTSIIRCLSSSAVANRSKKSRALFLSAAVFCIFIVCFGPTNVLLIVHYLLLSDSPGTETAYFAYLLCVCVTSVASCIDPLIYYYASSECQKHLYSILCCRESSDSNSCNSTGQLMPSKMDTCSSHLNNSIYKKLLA
Experiment: cell-based or functional assay

- potentiation of the response to NMDA plus glycine in CA1 pyramidal cells, 30 micromolar SFLLRN: 1.76 fold
Binder: SFLLRN
